Reference: article PMC4521584, “MutS/MutL crystal structure reveals that the MutS sliding clamp loads MutL onto DNA” (eLife, 2015)

Molecular target: T1, WT MutS, full length (E. coli, UniProt P23909 1-853)
T1 construct: MutS, E. coli, wild type; also called MutS sliding clamp; source: mutS gene in vector pET-3D; purified as described previously
T1 sequence (looked up): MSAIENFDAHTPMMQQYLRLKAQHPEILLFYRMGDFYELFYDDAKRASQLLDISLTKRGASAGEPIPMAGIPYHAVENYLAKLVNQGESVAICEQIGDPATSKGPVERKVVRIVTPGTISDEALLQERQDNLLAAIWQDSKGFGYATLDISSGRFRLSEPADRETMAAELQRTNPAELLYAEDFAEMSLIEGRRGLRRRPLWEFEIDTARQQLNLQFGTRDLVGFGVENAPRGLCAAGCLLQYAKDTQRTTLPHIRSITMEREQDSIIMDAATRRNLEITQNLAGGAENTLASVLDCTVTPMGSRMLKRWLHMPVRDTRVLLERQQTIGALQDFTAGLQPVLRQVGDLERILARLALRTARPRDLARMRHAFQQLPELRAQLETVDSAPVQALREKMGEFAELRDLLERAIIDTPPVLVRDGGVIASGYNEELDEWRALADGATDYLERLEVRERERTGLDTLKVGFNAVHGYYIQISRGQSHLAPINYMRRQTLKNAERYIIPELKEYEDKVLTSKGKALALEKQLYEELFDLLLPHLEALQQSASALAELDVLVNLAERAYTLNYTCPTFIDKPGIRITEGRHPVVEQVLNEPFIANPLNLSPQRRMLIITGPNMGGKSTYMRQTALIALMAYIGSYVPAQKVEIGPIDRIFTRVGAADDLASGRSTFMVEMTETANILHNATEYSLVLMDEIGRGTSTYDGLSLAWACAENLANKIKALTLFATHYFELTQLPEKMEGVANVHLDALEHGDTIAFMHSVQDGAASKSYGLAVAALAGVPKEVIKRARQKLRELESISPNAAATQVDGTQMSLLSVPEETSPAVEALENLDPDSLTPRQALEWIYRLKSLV
Assay: SPR; two-step: 200 nM MutS with 1 mM ATP trapped as sliding clamps on immobilised, end-blocked 100-bp G:T DNA, then MutL (varying concentrations, 1 mM ATP) injected 120 s; MutS-only signal subtracted; 25 mM Hepes pH 7.5, 150 mM KCl, 5 mM MgCl2, 1 mM DTT, 0.05% TWEEN-20, 20% glycerol; not strictly affinity curves
Conditions: both partners purified

- binding result: binds
B1: WT His6-MutL, full length (natural protein, E. coli, UniProt P23367 1-615, looked up)
chain: MPIQVLPPQLANQIAAGEVVERPASVVKELVENSLDAGATRIDIDIERGGAKLIRIRDNGCGIKKDELALALARHATSKIASLDDLEAIISLGFRGEALASISSVSRLTLTSRTAEQQEAWQAYAEGRDMNVTVKPAAHPVGTTLEVLDLFYNTPARRKFLRTEKTEFNHIDEIIRRIALARFDVTINLSHNGKIVRQYRAVPEGGQKERRLGAICGTAFLEQALAIEWQHGDLTLRGWVADPNHTTPALAEIQYCYVNGRMMRDRLINHAIRQACEDKLGADQQPAFVLYLEIDPHQVDVNVHPAKHEVRFHQSRLVHDFIYQGVLSVLQQQLETPLPLDDEPQPAPRSIPENRVAAGRNHFAEPAAREPVAPRYTPAPASGSRPAAPWPNAQPGYQKQQGEVYRQLLQTPAPMQKLKAPEPQEPALAANSQSFGRVLTIVHSDCALLERDGNISLLSLPVAERWLRQAQLTPGEAPVCAQPLLIPLRLKVSAEEKSALEKAQSALAELGIDFQSDAQHVTIRAVPLPLRQQNLQILIPELIGYLAKQSVFEPGNIAQWIARNLMSEHAQWSMAQAITLLADVERLCPQLVKTPPGGLLQSVDLHPAIKALKDE
notes: MutL, E. coli, wild type; also called WT MutL; WT His-MutL; source: mutL gene in plasmid pTX418; purified as described previously
